Reference: the supplement of paper PMC10201428
± gives the standard deviation of the averaged measurements.

B1: library; a variant is named by its letters at N, in order (parent)
chain: AATGTTGTTGATGCAACCATAAAGTGATATTTAATAATTATTTATAATCAGCAACTTAACCACAAAACAACCATATATTGATATNTCACAAAACAACCATAANTTGATATTTTTGTGAATCGAGTATTTCAGCAAAACTACTGCAGTAAGAA

Columns and labels:
[1] = variants of: B1; test: relative integration efficiency (T-LR orientation) vs wild-type transposon end (log2 (normalized fold change)); transposon end mutated: left end; higher = more efficient transposition; settings: with VchCAST RNA-guided transposition machinery (E. coli BL21(DE3) host, lacZ target)
Procedure, shortened: (§1)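 Co-transformation of E. coli BL21(DE3) combined a pUC57 mini-transposon donor, holding barcoded pools of 1549 left-end or 1849 right-end variants, with a T7-driven plasmid encoding a CRISPR array, tniQ-cas8-cas7-cas6 and tnsA-tnsB-tnsC. After plating with 0.1 mM IPTG at 37°C for 18 h, input plasmids and genomic integration junctions were PCR-amplified and Illumina-sequenced across two biological output replicates, with four reference barcodes. Relative integration efficiency is the normalised, log-transformed output/input barcode fold change.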

[2] = variants of: B1; test: relative integration efficiency (T-RL orientation) vs wild-type transposon end (log2 (normalized fold change)); transposon end mutated: left end; higher = more efficient transposition; settings: with VchCAST RNA-guided transposition machinery (E. coli BL21(DE3) host, lacZ target)
Procedure, shortened: as §1

| Variant | relative integration efficiency (log2) [1] | relative integration efficiency (log2) [2] |
| --- | --- | --- |
| CG A40G T42G T43A A44G T45C A46G A47G T48A C49T G51A | -1.07 ± 0.8 | -1.29 ± 0.32 |
| CG A47G T48G C52T A53G C55G T56C T57G A58C C60A A62G A66T A67T | -3.24 ± 2.1 | -2.77 ± 0.78 |
| CG A37C T38G T39G A40C | 0.21 ± 0.43 | -0.0337 ± 0.1 |
| CG A58C A59C | -0.146 ± 0.33 | -0.0826 ± 0.066 |
| CG A53T A54T C55G T56A | -0.3673 ± 0.0015 | -0.413 ± 0.41 |
| CG A34C A36G T38C A40G T42C A62G A65G A66C | -0.589 ± 0.68 | -0.685 ± 0.25 |
| CG A77C T78G T79G G80T | -2.28 ± 1.1 | -1.57 ± 0.49 |
| CG A66C | 0.113 ± 0.11 | -0.147 ± 0.047 |
| CG A66G | -0.258 ± 0.65 | 0.0591 ± 0.047 |
| CG A66T | 0.195 ± 0.21 | 0.0703 ± 0.19 |
| CG A77C T86G | 0.141 ± 0.0087 | -0.217 ± 0.029 |
| CG A29T T30A | 0.489 ± 0.49 | 0.23 ± 0.29 |
| CG A34C T35C A36G T38C A40G T42C A44G T45C A46C A62G A65G A66C | -1.11 ± 0.2 | -1.33 ± 0.56 |
| CG A75C T76G | -2.22 ± 0.87 | -1.59 ± 0.54 |
| CG A83G | 0.426 ± 0.3 | 0.00989 ± 0.23 |
| CG A83C | 0.152 ± 0.25 | 0.0829 ± 0.27 |
| CG A83T | -0.465 ± 0.53 | -0.189 ± 0.057 |
| CG A40C T41G | 0.224 ± 0.022 | -0.0298 ± 0.00035 |
| CG A88T C89G | 0.362 ± 0.31 | 0.178 ± 0.048 |
| CG A46C A47C | -0.43 ± 0.42 | -0.349 ± 0.19 |

| Variant | relative integration efficiency (log2) [1] | relative integration efficiency (log2) [2] |
| --- | --- | --- |
| TG A23G G24T A33T A70C T76A T86G | -0.0695 ± 0.1 | -0.149 ± 0.11 |
| CG A50T G51C C52G A53T | -0.839 ± 1.2 | -0.552 ± 0.39 |
| CG A59C C60A C61A A62C | 0.009 ± 0.11 | 0.0247 ± 0.0075 |
| TG A23G G24T A33T A70C T76A T84A C87A | 0.473 ± 0.22 | 0.022 ± 0.35 |
| TG A23G G24T A33T T76A T78A T84A C87A | 0.325 ± 0.22 | 0.0428 ± 0.34 |
| CG A33C A34C T35G A36C | -0.094 ± 0.018 | -0.077 ± 0.049 |
| CG A33C A34C | -0.259 ± 0.42 | 0.167 ± 0.0038 |
| CG A88C C89A | 0.0423 ± 0.026 | 0.0174 ± 0.062 |
| CG A34C A36G T38C T42C A62G A65G A66C | -0.874 ± 0.72 | -0.721 ± 0.33 |
| CG A33G | 0.00747 ± 0.0001 | 0.292 ± 0.074 |
| CG A33T | 0.232 ± 0.46 | 0.135 ± 0.21 |
| CG A33C | 0.29 ± 0.052 | 0.172 ± 0.082 |
| CG A77T T78A | 0.574 ± 0.48 | 0.149 ± 0.12 |
| CG A53C | -0.195 ± 0.56 | -0.278 ± 0.078 |
| CG A53G | 0.388 ± 0.41 | -0.054 ± 0.011 |
| CG A53T | 0.318 ± 0.24 | 0.0743 ± 0.088 |
| CG A44C T45G A46C A47C | 0.0873 ± 0.37 | -0.21 ± 0.22 |
| CG A47G | -0.05 ± 0.31 | -0.131 ± 0.15 |
| CG A47T | 0.0475 ± 0.098 | 0.0568 ± 0.074 |
| CG A47C | -0.251 ± 0.89 | -0.0577 ± 0.11 |

| Variant | relative integration efficiency (log2) [1] | relative integration efficiency (log2) [2] |
| --- | --- | --- |
| CG A73T T74A | -0.734 ± 0.56 | -0.97 ± 0.4 |
| CG A34C T35G T39C T41A T45A G51T C52A A53G A54G C60T A62G C63A | 0.531 ± 0.51 | -0.0678 ± 0.088 |
| CG A64T A65T A66T A67T | -0.239 ± 0.35 | -0.0292 ± 0.19 |
| CG A27T T28A A29T T30A | -0.918 ± 0.29 | -0.753 ± 0.39 |
| CG A54T | 0.264 ± 0.087 | 0.224 ± 0.12 |
| CG A54G | 0.358 ± 0.56 | 0.00787 ± 0.0088 |
| CG A54C | -0.339 ± 0.014 | -0.178 ± 0.022 |
| CG A44T T45A A46T A47T | 0.462 ± 0.079 | -0.0681 ± 0.078 |
| CG A75T T76A A77T T78A | -0.0527 ± 0.32 | -0.453 ± 0.37 |
| CG A50C G51T C52A A53C | -0.0404 ± 0.5 | -0.0487 ± 0.27 |
| TG A23G G24T A33T T76A A77G C87T | 0.312 ± 0.44 | -0.26 ± 0.39 |
| CG A34C T35G A36C A37C | 0.532 ± 0.072 | 0.175 ± 0.24 |
| CG A67T | -0.588 ± 0.78 | -0.202 ± 0.27 |
| CG A67C | -0.106 ± 0.44 | -0.129 ± 0.051 |
| CG A67G | -0.325 ± 0.26 | -0.269 ± 0.083 |
| CG A64C A65C | -0.354 ± 0.13 | -0.201 ± 0.15 |
| CG A29C T30G T31G T32G | -0.555 ± 0.56 | -0.723 ± 0.61 |
| CG A50G | -0.586 ± 0.44 | -0.168 ± 0.005 |
